Test [1] addresses human CD27 (transmembrane protein) on the cell membrane (human) (UniProt P26842). Description: flow cytometry on human PBMC, antibody 5 ug/mL, CD19 PE-A against APC-A (Example 3.3); other quadrants printed: Q3-UL 15.04 %, Q3-LL 29.25 %, Q3-LR 51.11 %. Background: Flow cytometry measures light scatter and fluorescence of single cells or particles in a stream.
The target of test [2] is CD27-mFc (Kangdai) (human) (UniProt P26842). As to the kind of experiment: competition ELISA: coated CD70 (1 ug/mL), CD27-mFc fixed at 4.3 ug/mL plus antibody dilution, HRP anti-mouse Fc detection; blocked ligand CD70 (Example 3.5).
Sequence of CD27-mFc (Kangdai) (human) (P26842 21-192 limits assumed): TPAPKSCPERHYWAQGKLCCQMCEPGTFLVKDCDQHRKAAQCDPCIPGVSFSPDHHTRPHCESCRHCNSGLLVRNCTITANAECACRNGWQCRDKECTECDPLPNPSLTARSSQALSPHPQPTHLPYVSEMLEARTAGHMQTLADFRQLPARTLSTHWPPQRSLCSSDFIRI
The target is the same in test [3]. As to the kind of experiment: ELISA on coated CD27-mFc (1 ug/mL), AP anti-human Fc detection, absorption at 405/490 nm (Example 15.2).
Test [4] has the same target. As to the kind of experiment: ELISA on coated CD27-mFc. For orientation: ELISA stands for enzyme-linked immunosorbent assay.
The target of test [5] is antigen CD27 (soluble, as used in the BLI and SPR experiments) (UniProt P26842). As to the kind of experiment: BLI, antibody captured on AHC probe, CD27 in solution. (In general: Biolayer interferometry detects binding as a change in optical thickness at a sensor tip.)
Sequence of antigen CD27 (soluble, as used in the BLI and SPR experiments) (P26842 21-192 limits assumed): as above
Test [6] concerns the target human CD27 (transmembrane protein) on the cell membrane (human) (UniProt P26842). Description: flow cytometry on CHO cells expressing human CD27.
Test [7] has the same target. As to the kind of experiment: flow cytometry on human PBMC, antibody 5 ug/mL, CD3 FITC-A against APC-A (Example 3.3); other quadrants printed: Q2-UL 16.97 %, Q2-LL 27.93 %, Q2-LR 8.25 %.
The target of test [8] is CD27-mFc (Kangdai) (human) (UniProt P26842). As to the kind of experiment: competition ELISA: CD70 coated, CD27-mFc plus antibody dilutions; competitor CD70.

Sequence of human CD27 (transmembrane protein) on the cell membrane (human) (P26842 20-260): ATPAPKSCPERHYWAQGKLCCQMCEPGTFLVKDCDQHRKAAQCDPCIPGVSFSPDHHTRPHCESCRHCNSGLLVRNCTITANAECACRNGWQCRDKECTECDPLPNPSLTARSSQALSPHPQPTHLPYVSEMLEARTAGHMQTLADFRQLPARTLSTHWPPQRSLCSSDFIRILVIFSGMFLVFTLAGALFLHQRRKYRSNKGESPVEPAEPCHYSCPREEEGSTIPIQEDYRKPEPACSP

Substance “CD27 monoclonal antibody Varlilumab (1F5)” registered a Q3-UR, percent of gated cells that are CD19 PE+ and APC+ (antibody-stained) in test [1] of 4.6%. Moreover, the IC50 (read off the curve) in test [2] amounted to 1 µg/mL. Besides, the figures for the concentration giving a half-maximal response (EC50) in test [3], in test [4] and in test [6] were 0.032 µg/mL, 0.0381 µg/mL and 2.87 µg/mL, respectively. In test [5], the dissociation constant Kd came to 696 pM. For the same substance, the koff in test [5] worked out at 8.75e-05 s⁻¹. This substance also returned an association rate constant (kon) in test [5] of 126000 M⁻¹ s⁻¹. In test [7], this substance gave a Q2-UR, percent of gated cells that are CD3 FITC+ and APC+ (antibody-stained) of 46.9%. In addition, the IC50 in test [8] came out at 1.31 µg/mL.

As usually defined, the EC50 is the concentration needed to bring the measured effect to its halfway point. High values mean a less potent agent, low ones a more potent agent. As a reminder, the Kd is the concentration at which binding is half-saturated. Read a high Kd as lower affinity. A word on the koff: it is a measure of how fast the partners let go of each other. The kon is the second-order rate constant of association. Broadly, the IC50 is the midpoint of a concentration-inhibition curve.

The values above are taken from patent US20260265393A1.
